The source of these data is patent US6562591 (RIGEL PHARMACEUTICALS, dated 2003).

Holding throughout (test): co-immunoprecipitation: anti-HA IP, anti-FLAG blot, Phoenix-A cell lysates
The target in experiment [1] is T1, FLAG-NCK, full length human NCK with N-terminal FLAG epitope tag (human, UniProt P16333 2-377).
T1 construct: mature; also called FLAG-tagged NCK
The text has this: (§1) Washed precipitates were subjected to SDS-PAGE analysis and Western blotting. Supersignal and Supersignal West Duro substrates (Piers) were used as detection systems for the Western blotting.
(§2) Interaction of Tnik with TRAF2 and NCK—To confirm the interaction of Tnik with TRAF2, N-terminal HA-tagged Tnik was transiently expressed in Phoenix-A cells and HA-Tnik was immunoprecipitated by an anti-HA antibody. The immune complexes were resolved on SDS-PAGE and immunoblotted with an anti-TRAF2 antibody. Endogenous TRAF2 specifically co-immunoprecipitated with HA-Tnik (FIG. 6, top panel). To map the interaction domain on Tnik that mediated its interaction with TRAF2, we constructed several truncated forms of HA-tagged Tnik (FIG. 7) and co-expressed them with FLAG-tagged TRAF2. Anti-HA immunoprecipitates were then blotted with an anti-FLAG antibody to detect the co-immunoprecipitated FLAG-TRAF2. […] Expression levels of the transfected proteins were controlled by immunoblotting cell lysates with anti-HA and anti-FLAG antibodies (FIG. 8, middle and bottom panels).
(§3) We then mapped the domains on TRAF2 that mediated the interaction with Tnik. FLAG-tagged TRAF2 mutants (FIG. 9) were co-expressed with HA-Tnik and the lysates were subjected to anti-HA immunoprecipitation. The immune complexes were then blotted with an anti-FLAG antibody.

Experiment [2] addresses T2, FLAG-TRAF2, full length human Traf2 with N-terminal FLAG epitope tag (human, UniProt Q12933 2-501).
T2 construct: mature; also called FLAG-tagged TRAF2; TRAF2(WT)
T2 sequence: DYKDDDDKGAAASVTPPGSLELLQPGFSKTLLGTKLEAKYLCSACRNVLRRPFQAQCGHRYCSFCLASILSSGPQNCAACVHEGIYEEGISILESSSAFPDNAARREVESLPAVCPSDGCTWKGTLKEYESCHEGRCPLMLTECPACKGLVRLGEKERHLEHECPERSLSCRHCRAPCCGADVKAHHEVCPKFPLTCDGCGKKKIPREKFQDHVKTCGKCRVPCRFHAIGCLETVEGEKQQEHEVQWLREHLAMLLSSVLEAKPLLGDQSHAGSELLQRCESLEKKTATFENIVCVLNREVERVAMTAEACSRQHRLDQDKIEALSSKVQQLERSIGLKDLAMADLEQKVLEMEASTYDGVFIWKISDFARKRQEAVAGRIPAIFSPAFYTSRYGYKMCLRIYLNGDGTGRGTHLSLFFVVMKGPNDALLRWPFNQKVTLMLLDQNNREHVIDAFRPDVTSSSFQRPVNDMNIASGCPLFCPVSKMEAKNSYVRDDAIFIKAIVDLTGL
Source text: as §1, §2, §3

For experiment [3], the target named is T3, HA-Tnik(WT), full length human Tnik isoform 1 with N-terminal HA epitope tag (human, UniProt Q9UKE5 1-1360).
T3 construct: Expressed transiently in Phoenix-A cells and immunoprecipitated from lysate; also called Tnik1
Source text: as §1, §2, §3

B1: HA-Tnik(N1), Tnik mutant with only the kinase domain (enzyme)
chain: AYPYDVPDYAMASDSPARSLDEIDLSALRDPAGIFELVELVGNGTYGQVYKGRHVKTGQLAAIKVMDVTGDEEEEIKQEINMLKKYSHHRNIATYYGAFIKKNPPGMDDQLWLVMEFCGAGSVTDLIKNTKGNTLKEEWIAYICREILRGLSHLHQHKVIHRDIKGQNVLLTENAEVKLVDFGVSAQLDRTVGRRNTFIGTPYWMAPEVIACDENPDATYDFKSDLWSLGITAIEMAEGAPPLCDMHPMRALFLIPRNPAPRLKSKKWSKKFQSFIESCLVKNHSQRPATEQLMKHPFIRDQPNERQVRIQLKDH
As for B1, the binding result in experiment [1] and in experiment [2] was “no binding” each time.

B2: FLAG-TRAF2(1-272) (other, human)
chain: DYKDDDDKGMAAASVTPPGSLELLQPGFSKTLLGTKLEAKYLCSACRNVLRRPFQAQCGHRYCSFCLASILSSGPQNCAACVHEGIYEEGISILESSSAFPDNAARREVESLPAVCPSDGCTWKGTLKEYESCHEGRCPLMLTECPACKGLVRLGEKERHLEHECPERSLSCRHCRAPCCGADVKAHHEVCPKFPLTCDGCGKKKIPREKFQDHVKTCGKCRVPCRFHAIGCLETVEGEKQQEHEVQWLREHLAMLLSSVLEAKPLLGDQSHAGSELLQRC
As to B2, the binding result in experiment [3] is “no binding”.

B3: HA-Tnik(C2), GCKH domain of Tnik (other)
chain: AYPYDVPDYARKISVVNVNPTNIRPHSDTPEIRKYKKRFNSEILCAALWGVNLLVGTENGLMLLDRSGQGKVYNLINRRRFQQMDVLEGLNVLVTISGKKNKLRVYYLSWLRNRILHNDPEVEKKQGWITVGDLEGCIHYKVVKYERIKFLVIALKNAVEIYAWAPKPYHKFMAFKSFADLQHKPLLVDLTVEEGQRLKVIFGSHTGFHVIDVDSGNSYDIYIPSHIQGNITPHAIVILPKTDGMEMLVCYEDEGVYVNTYGRITKDVVLQWGEMPTSVAYIHSNQIMGWGEKAIEIRSVETGHLDGVFMHKRAQRLKFLCERNDKVFFASVRSGGSSQVFFMTLNRNSMMNW
As to B3, the binding result in experiment [1] is “no binding”.
